One may read the Kd as a measure of binding affinity in units of concentration.

Consider 3 substances from PMC6328613.

Assay [1] deals with MBP-Scyl1 (UniProt Q96KG9). The experiment in a line: SPR; ProteOn XPR36, GLH chip; cross-linked anti-MBP antibody, MBP-Scyl1 captured (3000 RU), GST-GORAB variants as analyte at 30 nM, 100 µL/min, 120 s association, 600 s dissociation; 150 mM NaCl, 10 mM HEPES, 0.02% Tween-20, pH 7.4. A general note: SPR reads the build-up and loss of mass on a sensor chip optically.
Chain of UniProt Q96KG9 (Q96KG9 whole entry): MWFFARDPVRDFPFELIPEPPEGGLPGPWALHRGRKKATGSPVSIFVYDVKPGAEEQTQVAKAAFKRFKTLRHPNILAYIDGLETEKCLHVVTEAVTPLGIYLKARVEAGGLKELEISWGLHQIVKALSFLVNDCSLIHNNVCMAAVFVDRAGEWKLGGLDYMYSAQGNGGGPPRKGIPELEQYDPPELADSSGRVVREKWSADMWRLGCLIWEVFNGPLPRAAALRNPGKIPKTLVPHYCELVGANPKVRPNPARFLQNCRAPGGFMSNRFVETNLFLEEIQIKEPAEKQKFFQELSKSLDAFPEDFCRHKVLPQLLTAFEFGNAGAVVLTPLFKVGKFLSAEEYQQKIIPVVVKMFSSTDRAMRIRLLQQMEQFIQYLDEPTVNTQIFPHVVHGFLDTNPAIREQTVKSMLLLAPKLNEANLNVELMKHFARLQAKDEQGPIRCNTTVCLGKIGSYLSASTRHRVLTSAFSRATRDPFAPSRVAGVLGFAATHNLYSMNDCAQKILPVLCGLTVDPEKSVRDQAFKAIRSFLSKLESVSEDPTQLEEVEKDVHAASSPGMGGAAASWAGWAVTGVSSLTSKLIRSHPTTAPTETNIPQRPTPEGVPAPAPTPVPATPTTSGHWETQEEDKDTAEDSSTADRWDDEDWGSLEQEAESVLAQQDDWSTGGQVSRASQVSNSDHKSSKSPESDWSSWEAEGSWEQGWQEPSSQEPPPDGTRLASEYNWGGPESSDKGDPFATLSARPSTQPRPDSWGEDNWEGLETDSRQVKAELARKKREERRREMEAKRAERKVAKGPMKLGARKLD
For assay [2], the target named is MBP-Scyl1 (UniProt Q96KG9).

Regarding GST-GORAB (natural protein), the Kd in the assay with MBP-Scyl1 [1] turned out to be 0.52 nM.

In turn, GST-GORAB K190del (natural protein) had a Kd in the assay with MBP-Scyl1 [1] of 0.52 nM.

“recombinant mouse coatomer isotype γ2ζ1 (from UniProt Q9QXK3 1-871; P61924 1-177; Q5XJY5 1-511; O89079 1-308; O55029 1-905) (complex)”: the recruitment of coatomer (δ-COP, ε-COP) to liposomes in the presence of myr-Arf1, with MBP-Scyl1 against MBP-IPIP27A in the assay with MBP-Scyl1 [2] was found to be 2 fold.
